# Test: soluble on expression in E. coli; label from the status in PepcDB or PDB records
row,Sequence,soluble on expression in E. coli
1,MLEFSSEVSLLDSVKNILLEYGLRFQEPQIEKVDKYIEELLGVPYNLTAHRDLDSAVHKNVVEILLPLKEELKGTLLDVGSGNGVPGLILAIFFSKLKVVLLDSREKSVNFLRGVIEKLDLENVSVVKERAENFSKERREEFDYVTARAVARLNVLVEICTPALKTGGKLLFYKGPSYIEELKEAQRAMKELKVELEKVREYSLKTGERRALLILRKYESSPEKYPRRVGVPFKRPLL,soluble
2,MTSENSESQDIWLTDEQQDVWLDVWTMRIGLPARLDAQLKEAAGVSHFEYFTMAQISMAPEHRVRMSELAELSDMTLSHLSRVVTRLEKAGWVKRVPDPDDGRATVAVLTDSGWEKVKATAPGHVKEVRRLVFDDLTPEELKVMGTAMKKIVNRLDMSNRLPRV,not soluble
3,MLKRKVITEFRRHNRSSRWNADAHLRAHERSANVEDDAIMRVDTCQLAANNPIEDFYSAAKCLSSRAFLFGVFDGHGGQQCSRHISTNLYPYLCASVLKKHEVVDYPSDQRLEWLFSSSDGHLPNAFKGRETQHIAEYHKQFKKNANAYTGTVREALKLAFETCDKDLAENALPSAKGVIDRHAAMVAASGSCCTLAHIRSRHLHVANLGDAAAVLGVVNPNGSVTARQLSRAHCVDNADEVHRIRIAHPASESQTVLRGGRLLGELFPLRAFGDVRYKWPLDLQKVVLEPLGHPPPQHLFTPPYLSTSPEVFYHKLTPNDRFLVLATDGLWEWLDPDTVVRLVHDHTLGTITQQPYVPKSGTSLRQVREQLKDRARGEQKTKKPIDENCATHIIRHALGGVSGGATKQYERLIDILQVPPGRARNYRDDITVIVIHFNETFLDGHEDDEE,not soluble
4,MKTEKDKMLAGEMYIADDEELVADRVEAKRLTRLYNEAVETGDERRFTLLNQLLGSSADGKAQINPDFRCDYGYNIHVGKSFFANFNCVILDVCEVRIGDHCMFAPGVHIYTATHPLHPVERNSGKEYGKPVKIGNNVWVGGGAIINPGVSIGDNAVIASGAVVTKDVPNNVVVGGNPAKVIKTIEE,not soluble
5,MGSDKIHHHHHHMKVAIVIHDLKGGGAEKMMMRLANAISKQHHEVDLVLLTNGGTNKDLLDNGVNLIELNSLRTASSVPRLRQYLKINSPDRVLSALTHVNVITFIACLSLGWLSRLHCSERNAFSFDKDVNKSPLIKFAYFLAPFLYRISPNPVIAVSLGVALDLIETTVVCPKNVINLPNPTLNDNYKTHIFLAPSHPWLSDKTKPVIVGLGRLAQQKGFSDLINAFALVREKIDSRLIIFGEGELRIKLQTQIDNLGLTDSVSLFGYVRAPMDEVHSADVFVLSSLFEGSPNALVEAMASRCKVVSTRCPCGPDEILIQGALGILVPVKSPNKLAEAIICSLLDADYDFENQLDKIERFTANNSASAYLSAMGIHGV,not soluble
6,MGSDKIHHHHHHMRKFNLTALSVMLALGLTACQPPEAEKAAPAASGEAQTANEGGSVSIAVNDNACEPMELTVPSGQVVFNIKNNSGRKLEWEILKGVMVVDERENIAPGLSDKMTVTLLPGEYEMTCGLLTNPRGKLVVTDSGFKDTANEADLEKLSQPLADYKAYVQGEVKELVAKTKTFTEAVKAGDIEKAKSLFADTRVHYERIEPIAELFSELDPVIDAREDDFKDGAKDAGFTGFHRIEYALWVEKDVSGVKEIAAKLMTDVEALQKEIDALAFPPGKVVGGASELIEEVAGSKISGEEDRYSHTDLSDFQANVDGSKKIVDLFRPLIEAKNKALLEKTDTNFKQVNEILAKYRTKDGFETYDKLGEADRKALQASINALAEDLAQLRGILGLK,not soluble
7,GSHMSQVEKDNTQALIPTMNMARQLSEASAWELFAAQNLTSADNEKMWQAQGRMLTAQSLKINALLQALREQGFDTTAIEQQEQEISRSLRQQGELVGQRLQLRQQQQQLSQQIVAAADEIARLAQGQANNATTSAGATQAGIYDLIEQDQRQAAESALDRLIDIDLEYVNQMNELRLSALRVQQMVMNLGLEQIQKNAPTLEKQLNNAVKILQRRQIRIEDPGVRAQVATTLTTVSQYSDLLALYQQDSEISNHLQTLAQNNIAQFAQFSSEVSQLVDTIELRNQHGLA,soluble
8,LHPEPQSQHELGNVFLKFKDKFCVYEEYCSNHEKALRLLVELNKIPTVRAFLLSCMLLGGRKTTDIPLEGYLLSPIQRICKYPLLLKELAKRTPGKHPDHPAVQSALQAMKTVCSNINETKRQMEKLEALEQLQSHIEGWEGSNLTDICTQLLLQGTLLKISAGNIQERAFFLFDNLLVYCKRKSRVTGSKKSTKRTKSINGSLYIFRGRINTEVMEVENVEDGTADYHSNGYTVTNGWKIHNTAKNKWFVCMAKTAEEKQKWLDAIIREREQRESLKLGMERDAYVMIAEKGEKLYHMMMNKKVNLIKDRRRKLSTVPKCFLGNEFVAWLLEIGEISKTEEGVNLGQALLENGIIHHVSDKHQFKNEQVMYRFRYDDGTYKARSELEDIMSKGVRLYCRLHSLYTPVIKDRDYHLKTYKSVLPGSKLVDWLLAQGDCQTREEAVALGVGLCNNGFMHHVLEKSEFRDESQYFRFHADEEMEGTSSKNKQLRNDFKLVENILAKRLLILPQEEDYGFDIEEKNKAVVVKSVQRGSLAEVAGLQVGRKIYSINEDLVFLRPFSEVESILNQSFCSRRPLRLLVATKAKEIIKIPDQPDTLCFQIRGAAPPYVYAVGRGSEAMAAGLCAGQCILKVNGSNVMNDGAPEVLEHFQAFRSRREEALGLYQWIYHTHEDAQEARASQEASTEDPSGEQAQEEDQADSAFPLLSLGPRLSLCEDSPMVTLTVDNVHLEHGVVYEYVSTAGVRCHVLEKIVEPRGCFGLTAKILEAFAANDSVFVENCRRLMALSSAIVTMPHFEFRNICDTKLESIGQRIACYQEFAAQLKSRVSPPFKQAPLEPHPLCGLDFCPTNCHINLMEVSYPKTTPSVGRSFSIRFGRKPSLIGLDPEQGHLNPMSYTQHCITTMAAPSWKCLPAAEGDPQGQGLHDGSFGPASGTLGQEDRGLSFLLKQEDREIQDAYLQLFTKLDVALKEMKQYVTQINRLLSTITEPTSGGSCDTSLAEEASSLPLVSEESEMDRSDHGGIKKVCFKVAEEDQEDSGHDTMSYRDSYSECNSNRDSVLSYTSVRSNSSYLGSDEMGSGDELPCDMRIPSDKQDKLHGCLEHLFNQVDSINALLKGPVMSRAFEETKHFPMNHSLQAIHPFTHSATHAPINPSVHPPLHPTTHLPSIHPPTHPPTHPSIYPPTHPSIHLLVCPSIHPSLLPSVCPLFHPSTHSFIIYLSIHASVHPVNNFPEPACARPCTGHWRP,soluble
9,MGSDKIHHHHHHMSQSIRQAVMQASQAWIADFNRQAFADCIARYLPEAQMQVSPFGRFDGVEAISQFWLGFAQQNPGELVYRNVEIKVLSDSQAILSANWRMNIASGFISKELWTLADDGHWYLEEDDFSVLTQLSEPLAPRMRSALVLVDLQNDYFKGGRFALDNCEAAAANAAKLLHHFRSNQLPVIHVQHIFKDPEASFFQAGTQGVEIADMVAPKGNEPVIIKHYVDSFIDTALSQTLIEMGIDKLVVVGAMAQACVQTLCRSAVKAGFECEVISDAIAAPSLSWESQDLSGEQLVAANLISLSFGGAKALSLDDWLILERLAG,not soluble
10,PATDASVLLVQLSDSHLFAEDGARLLGMDTAHSLEKVVERVAREQPRIDLILATGDVSQDGSLDSYTRFRRLSAPLDAPLRWFAGNHDEREPMQRATEGSDLLEQVVDVGNWRVVLLDSSIPGAVPGYLEEDQLELLRRAIDSAGERFLLVSFHHHPVPIGSDWMDPIGLRNPQALFDLLAPYPQVRCLLWGHIHQEFDRQRGPLRLLASPSTCVQFAPGSSDFTLDRLAPGYRWLRLHDDGRLETGISRVDDVVF,not soluble
11,MASQLTQRGALFLLFFLTPAVTPTWYAGSGYYPDESYNEVYAEEVPQAPALDYRVPRWCYTLNIQDGEATCYSPKGGNYHSSLGTRCELSCDRGFRLIGRRSVQCLPSRRWSGTAYCRQMRCHALPFITSGTYTCTNGVLLDSRCDYSCSSGYHLEGDRSRICMEDGRWSGGEPVCVDIDPPKIRCPHSREKMAEPEKLTARVYWDPPLVKDSADGTITRVTLRGPEPGSHFPEGEHVIRYTAYDRAYNRASCKFIVKVQVRRCPTLKPPQHGYLTCTSAGDNYGASCEYHCDGGYDRQGTPSRVCQSSRQWSGSPPICAPMKINVNVNSAAGLLDQFYEKQRLLIISAPDPSNRYYKMQISMLQQSTCGLDLRHVTIIELVGQPPQEVGRIREQQLSANIIEELRQFQRLTRSYFNMVLIDKQGIDRDRYMEPVTPEEIFTFIDDYLLSNQELTQRREQRDICE,soluble
12,MKKVYLFKLKFNTPYGLRVGGPKEDISTLTPLKIGQHYVIPSSSWKGIFRRTTEVLITNPNHFRGHEGEDVTDDGSLDELLEAKGLENKNDENVRKERKRFIAMWNCPVERLYGSEYFASAVTFSDTLIDAEINQRTHVVIDRKTRKSEEKHLYSEQIVNVNSVRVKVIVRDRIDDWIKTLKFLSEFGTFVGGGKSRGIGYAVLDWKESEYAEVDGLTRKIMFKPLDELKL,soluble
13,DDPQRVTWPTNAGTIQQALKRGYVVVAAGIRGRTTVDKSGQRVGQAPAFIVDMKAAIRYVKYNQGRLPGDTNRIITNGTSAGGATSALAGASGNSAYFEPALTALGAAPATDDIFAVSAYCPIHNLEHADMAYEWQFNGINDWHRYQPVAGTTKNGRPKFEPVSGQLTVEEQALSLALKAQFSTYLNQLKLTASDGTHLTLNEAGMGSFRDVVRQLLISSAQTAFDQGTDIHKYAGFVVTGNQVTDLDLSAYLKSLTRMKAVPAFDQLDLTSPENNLFGDATAKAKHFTALAQTRSTVTAQLADAELIQAINPLSYLTTTSSRVAKHWRIRHGAADRDTSFAIPIILAIMLENHGYGIDFALPWDIPHSGD,not soluble
14,LGEALNIYTPHRIVAFDNSNIQGTNPVSAMIVFIDGKPYKKEYRKYKIKTVTGPDDYGSMREVVRRRYTRVLRENLPLPDLIIIDGGKGQINAARDVIENELGLDIPIAGLAKDEKHRTSNLLIGDPLEVAYLERNSQEFYLLQRIQDEVHRFAI,not soluble
15,MSLVTVDQKPNLIRHLHDLSGVWQTDITYIQLTNHRWVYLATVLDPEKRKVLGYKIGDTMTAELATSALQMALDKHRKPLIIHSDMGSQYTSAEFNIKCQNYGLKHSYSLKGHPYDNGRMEAFHSILKREEVYLKAYQTLTEVQAAIGWYINFYNRNRISNVAEGHHHHHH,not soluble
16,MSLFQSDLKLIVFQHGFFGERFVANLMNYPNSCPSYGACGIDGCTQCKEGLYNFSKNIIAVFSMPDPTTMPDFIENAEDFLPKVIPEADIAVAINLHPDVLAVMPEKLKGKVKALIVPVEEPRWCSPGLAKQIREKCDELGLEFAAPKPFCNLRPSEEHPTINRMIEEMRIGYPEFEIELLEDGKAYVRISRSQPCGCAYYIGVKLRGFDFSEVKEGKMRELWNVVAEAHHSYPCTASMERDNEYNETLLHVGGYIARHAVNRALGYEGDEDIPEHIKHIVLEGGSHHHHHH,soluble
17,MRVLVLGGGVLGRAIAESLFGEFEVIVVEKDEVRVQTLAEKGLQVVQGDFSYTATLLKAHIEKADLIVITISDPEVIAKTLHVIQNNNKDAAVLLILPEDTSLEEIASIAKEKYDTDVKVDYVINPRSAIVRAVVDTIEKIGEKKNSMKLIEKLNEIKENTDTLLIVMHDNPDPDCMASASALSLIAQTVGLKTVIVYGGDITHHQNRAMVNILGMDFRKVSRGSYEIKRHSAIAIVDAQPNGNISILDDEDIAKVQIIIDHHQILQNLREKLPDNCFVDIRPEANSTSSILVEYLKSLEIPIDENLATALFYGMYIDTKKFSKLSKIDIKAIEFLSGHVDYDLLDKIEFPDISTETAEILARAILNRRIYKNVIISNVGFIANRDAIAEAADFLLRLEGITTVLVFGIVDDRIEISARTRDVRVNIGAIMKEAFGSLGSGGGHPQAGGARIPLGIFKLAKDKASLLRLVEEAITERFLEALGMREGT,not soluble
18,MGSDKIHHHHHHMVRLRPYRSCDAKYIVTWISSEEEFVKWCANLITYPFTEESMNKIQESFENNEKGWLFTAIDKKGTPIGFMSMSKADYENDSVHLGFIIVDSSKRSSGFGKQMINQAIKYAFEILNVSRVTLKVFDNNSTAHYCYQNVGFVDEKYMEKEFPYKDEMWGCYCMAIQK,not soluble
